Article PMC12045370

Columns and labels:
[1] = target: microtubules grown from purified bovine brain tubulin (bovine) (UniProt Q6B856); assay: optical trap rupture force assay; untreated kinetochores on anti-penta-His beads; dynamic microtubules grown from coverslip-anchored GMPCPP seeds; BRB80, 1 mM GTP, 23°C; force ramp 0.25 pN/s until detachment
[2] = target: microtubules grown from purified bovine brain tubulin (bovine) (UniProt Q6B856); assay: optical trap rupture force assay; benzonase-treated kinetochores on anti-penta-His beads; dynamic microtubules grown from coverslip-anchored GMPCPP seeds; BRB80, 1 mM GTP, 23°C; force ramp 0.25 pN/s until detachment

UniProt Q6B856, sequence (Q6B856 whole entry, looked up): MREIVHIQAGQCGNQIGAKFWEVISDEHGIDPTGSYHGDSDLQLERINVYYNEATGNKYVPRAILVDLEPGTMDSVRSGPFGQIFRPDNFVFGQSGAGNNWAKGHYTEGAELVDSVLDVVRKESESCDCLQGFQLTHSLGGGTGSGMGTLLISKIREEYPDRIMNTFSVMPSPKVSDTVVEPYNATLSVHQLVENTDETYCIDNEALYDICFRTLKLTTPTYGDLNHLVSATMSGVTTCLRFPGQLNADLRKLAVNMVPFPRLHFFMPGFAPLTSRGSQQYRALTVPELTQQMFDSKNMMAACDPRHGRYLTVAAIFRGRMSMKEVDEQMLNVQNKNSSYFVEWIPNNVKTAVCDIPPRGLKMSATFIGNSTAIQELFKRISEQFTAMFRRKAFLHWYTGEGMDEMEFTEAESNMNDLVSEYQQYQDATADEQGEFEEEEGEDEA

Substance | median rupture force [1] | median rupture force [2]
K. marxianus kinetochore particles purified via Dsn1-6His-3M3DK (from UniProt A0ABX6F0Z3 1-547) (complex) | 7.5 pN | 6.4 pN
S. cerevisiae kinetochore particles purified via Dsn1-6His-3M3DK (from UniProt P40568 1-576) (complex) | 7.2 | 
